The record followed here is paper PMC8401255.

The target in this test is gramicidin A (Bacillus brevis). As to the kind of experiment: single-channel electrophysiology on a planar lipid bilayer; gA in a free-standing DPhPC planar bilayer (painting method, n-decane); dimer (channel) lifetime recorded with an Axopatch amplifier for 30 min at 20 °C; lidocaine or tetracaine in the buffer at 1, 3, 6 and 10 mM; lifetime normalised to that without local anesthetic (tau/tau0); monomer to dimer.

In turn, gramicidin A (peptide) gave a normalized dimer lifetime (tau/tau0) at 1 mM lidocaine of 1.33, a normalized dimer lifetime (tau/tau0) at 1 mM tetracaine of 1.88, a normalized dimer lifetime (tau/tau0) at 10 mM lidocaine of 3.66 and a normalized dimer lifetime (tau/tau0) at 10 mM tetracaine of 6.85.
